Laboratory results from the supplement of paper PMC5998384.

What was measured:
HeLa Kyoto [1] = assay: solubility in G1/S (NP-40 vs SDS abundance) (log2 ratio); higher = more soluble; settings: cell cycle stage: G1/S
HeLa Kyoto [2] = assay: melting temperature (median over replicates), in situ; higher = more thermally stable
HeLa Kyoto [3] = assay: solubility change mitosis vs G1/S (difference of NP-40 vs SDS log2 ratios) (log2 ratio difference); higher = more soluble in mitosis
HeLa Kyoto [4] = assay: thermal stability score vs G1/S (z-score of summed log2 fold changes over temperatures); higher = more thermally stable than in G1/S
[5] = cell cycle stage: early G1 (4.5 h after nocodazole release)
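Throughout, for melting temperature (median over replicates), in situ: HeLa Kyoto cells synchronized by double thymidine or nocodazole block, proteins quantified by TMT10plex mass spectrometry, three independent biological replicates.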
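Throughout, for solubility change mitosis vs G1/S (difference of NP-40 vs SDS log2 ratios): synchronized HeLa Kyoto cells (double thymidine block for G1/S, nocodazole release for mitosis), protein amounts in NP-40 versus SDS lysates quantified by mass spectrometry, three biological replicates.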
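Throughout, for solubility in G1/S (NP-40 vs SDS abundance): HeLa Kyoto cells arrested at G1/S by double thymidine block, proteins quantified by TMT10plex mass spectrometry in mild NP-40 versus SDS extracts, three biological replicates.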
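Throughout, for thermal stability score vs G1/S (z-score of summed log2 fold changes over temperatures): synchronized HeLa Kyoto cells, proteins quantified by TMT10plex mass spectrometry, three biological replicates, mitosis taken 0.5 h after nocodazole release, G1/S directly after double thymidine block.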

Sequence	solubility in G1/S (log2) (HeLa Kyoto [1])	melting temperature (HeLa Kyoto [2]; cell cycle stage: G1/S) [°C]	melting temperature (HeLa Kyoto [2]; cell cycle stage: mitosis) [°C]	solubility change mitosis (log2) (HeLa Kyoto [3])	thermal stability score (HeLa Kyoto [4]; [5])	thermal stability score (HeLa Kyoto [4]; cell cycle stage: mitosis)
MKFAEHLSAHITPEWRKQYIQYEAFKDMLYSAQDQAPSVEVTDEDTVKRYFAKFEEKFFQTCEKELAKINTFYSEKLAEAQRRFATLQNELQSSLDAQKESTGVTTLRQRRKPVFHLSHEERVQHRNIKDLKLAFSEFYLSLILLQNYQNLNFTGFRKILKKHDKILETSRGADWRVAHVEVAPFYTCKKINQLISETEAVVTNELEDGDRQKAMKRLRVPPLGAAQPAPAWTTFRVGLFCGIFIVLNITLVLAAVFKLETDRSIWPLIRIYRGGFLLIEFLFLLGINTYGWRQAGVNHVLIFELNPRSNLSHQHLFEIAGFLGILWCLSLLACFFAPISVIPTYVYPLALYGFMVFFLINPTKTFYYKSRFWLLKLLFRVFTAPFHKVGFADFWLADQLNSLSVILMDLEYMICFYSLELKWDESKGLLPNNSEESGICHKYTYGVRAIVQCIPAWLRFIQCLRRYRDTKRAFPHLVNAGKYSTTFFMVTFAALYSTHKERGHSDTMVFFYLWIVFYIISSCYTLIWDLKMDWGLFDKNAGENTFLREEIVYPQKAYYYCAIIEDVILRFAWTIQISITSTTLLPHSGDIIATVFAPLEVFRRFVWNFFRLENEHLNNCGEFRAVRDISVAPLNADDQTLLEQMMDQDDGVRNRQKNRSWKYNQSISLRRPRLASQSKARDTKVLIEDTDDEANT [XPR1]	-0.193	52.2	51.1	-0.121	-0.783	-1.57
MKGLYFQQSSTDEEITFVFQEKEDLPVTEDNFVKLQVKACALSQINTKLLAEMKMKKDLFPVGREIAGIVLDVGSKVSFFQPDDEVVGILPLDSEDPGLCEVVRVHEHYLVHKPEKVTWTEAAGSIRDGVRAYTALHYLSHLSPGKSVLIMDGASAFGTIAIQLAHHRGAKVISTACSLEDKQCLERFRPPIARVIDVSNGKVHVAESCLEETGGLGVDIVLDAGVRLYSKDDEPAVKLQLLPHKHDIITLLGVGGHWVTTEENLQLDPPDSHCLFLKGATLAFLNDEVWNLSNVQQGKYLCILKDVMEKLSTGVFRPQLDEPIPLYEAKVSMEAVQKNQGRKKQVVQF [CRYZL1]	0.11	57	56.9	-0.249	0.0481	-1.74
MKGSRIELGDVTPHNIKQLKRLNQVIFPVSYNDKFYKDVLEVGELAKLAYFNDIAVGAVCCRVDHSQNQKRLYIMTLGCLAPYRRLGIGTKMLNHVLNICEKDGTFDNIYLHVQISNESAIDFYRKFGFEIIETKKNYYKRIEPADAHVLQKNLKVPSGQNADVQKTDN [NAA50]	0.325	53.1	53.8	-0.0822	0.726	-0.495
MKIFVGNVDGADTTPEELAALFAPYGTVMSCAVMKQFAFVHMRENAGALRAIEALHGHELRPGRALVVEMSRPRPLNTWKIFVGNVSAACTSQELRSLFERRGRVIECDVVKDYAFVHMEKEADAKAAIAQLNGKEVKGKRINVELSTKGQKKGPGLAVQSGDKTKKPGAGDTAFPGTGGFSATFDYQQAFGNSTGGFDGQARQPTPPFFGRDRSPLRRSPPRASYVAPLTAQPATYRAQPSVSLGAAYRAQPSASLGVGYRTQPMTAQAASYRAQPSVSLGAPYRGQLASPSSQSAAASSLGPYGGAQPSASALSSYGGQAAAASSLNSYGAQGSSLASYGNQPSSYGAQAASSYGVRAAASSYNTQGAASSLGSYGAQAASYGAQSAASSLAYGAQAASYNAQPSASYNAQSAPYAAQQAASYSSQPAAYVAQPATAAAYASQPAAYAAQATTPMAGSYGAQPVVQTQLNSYGAQASMGLSGSYGAQSAAAATGSYGAAAAYGAQPSATLAAPYRTQSSASLAASYAAQQHPQAAASYRGQPGNAYDGAGQPSAAYLSMSQGAVANANSTPPPYERTRLSPPRASYDDPYKKAVAMSKRYGSDRRLAELSDYRRLSESQLSFRRSPTKSSLDYRRLPDAHSDYARYSGSYNDYLRAAQMHSGYQRRM [RBM14]	-0.765	47.3	46.1	0.332	1.48	2.24
MKKAEMGRFSISPDEDSSSYSSNSDFNYSYPTKQAALKSHYADVDPENQNFLLESNLGKKKYETEFHPGTTSFGMSVFNLSNAIVGSGILGLSYAMANTGIALFIILLTFVSIFSLYSVHLLLKTANEGGSLLYEQLGYKAFGLVGKLAASGSITMQNIGAMSSYLFIVKYELPLVIQALTNIEDKTGLWYLNGNYLVLLVSLVVILPLSLFRNLGYLGYTSGLSLLCMVFFLIVVICKKFQVPCPVEAALIINETINTTLTQPTALVPALSHNVTENDSCRPHYFIFNSQTVYAVPILIFSFVCHPAVLPIYEELKDRSRRRMMNVSKISFFAMFLMYLLAALFGYLTFYEHVESELLHTYSSILGTDILLLIVRLAVLMAVTLTVPVVIFPIRSSVTHLLCASKDFSWWRHSLITVSILAFTNLLVIFVPTIRDIFGFIGASAASMLIFILPSAFYIKLVKKEPMKSVQKIGALFFLLSGVLVMTGSMALIVLDWVHNAPGGGH [SLC38A2]	0.157	57.5	57.6	-0.301	-0.691	-0.748
MKKEHVLHCQFSAWYPFFRGVTIKSVILPLPQNVKDYLLDDGTLVVSGRDDPPTHSQPDSDDEAEEIQWSDDENTATLTAPEFPEFATKVQEAINSLGGSVFPKLNWSAPRDAYWIAMNSSLKCKTLSDIFLLFKSSDFITRDFTQPFIHCTDDSPDPCIEYELVLRKWCELIPGAEFRCFVKENKLIGISQRDYTQYYDHISKQKEEIRRCIQDFFKKHIQYKFLDEDFVFDIYRDSRGKVWLIDFNPFGEVTDSLLFTWEELISENNLNGDFSEVDAQEQDSPAFRCTNSEVTVQPSPYLSYRLPKDFVDLSTGEDAHKLIDFLKLKRNQQEDD [CDC123]	-0.058	51.7	50.8	-0.111	1.5	0.565
MKKMSRNVLLQMEEEEDDDDGDIVLENLGQTIVPDLGSLESQHDFRTPEFEEFNGKPDSLFFNDGQRRIDFVLVYEDESRKETNKKGTNEKQRRKRQAYESNLICHGLQLEATRSVLDDKLVFVKVHAPWEVLCTYAEIMHIKLPLKPNDLKNRSSAFGTLNWFTKVLSVDESIIKPEQEFFTAPFEKNRMNDFYIVDRDAFFNPATRSRIVYFILSRVKYQVINNVSKFGINRLVNSGIYKAAFPLHDCKFRRQSEDPSCPNERYLLYREWAHPRSIYKKQPLDLIRKYYGEKIGIYFAWLGYYTQMLLLAAVVGVACFLYGYLNQDNCTWSKEVCHPDIGGKIIMCPQCDRLCPFWKLNITCESSKKLCIFDSFGTLVFAVFMGVWVTLFLEFWKRRQAELEYEWDTVELQQEEQARPEYEARCTHVVINEITQEEERIPFTAWGKCIRITLCASAVFFWILLIIASVIGIIVYRLSVFIVFSAKLPKNINGTDPIQKYLTPQTATSITASIISFIIIMILNTIYEKVAIMITNFELPRTQTDYENSLTMKMFLFQFVNYYSSCFYIAFFKGKFVGYPGDPVYWLGKYRNEECDPGGCLLELTTQLTIIMGGKAIWNNIQEVLLPWIMNLIGRFHRVSGSEKITPRWEQDYHLQPMGKLGLFYEYLEMIIQFGFVTLFVASFPLAPLLALVNNILEIRVDAWKLTTQFRRLVPEKAQDIGAWQPIMQGIAILAVVTNAMIIAFTSDMIPRLVYYWSFSVPPYGDHTSYTMEGYINNTLSIFKVADFKNKSKGNPYSDLGNHTTCRYRDFRYPPGHPQEYKHNIYYWHVIAAKLAFIIVMEHVIYSVKFFISYAIPDVSKRTKSKIQREKYLTQKLLHENHLKDMTKNMGVIAERMIEAVDNNLRPKSE [ANO6]	0.0135	54.6	54.3	-0.0681	0.734	0.413
MKLLTHNLLSSHVRGVGSRGFPLRLQATEVRICPVEFNPNFVARMIPKVEWSAFLEAADNLRLIQVPKGPVEGYEENEEFLRTMHHLLLEVEVIEGTLQCPESGRMFPISRGIPNMLLSEEETES [TRMT112]	0.323	51.5	51.4	0.201	-4.68	-1.02
MKLLTRAGSFSRFYSLKVAPKVKATAAPAGAPPQPQDLEFTKLPNGLVIASLENYSPVSRIGLFIKAGSRYEDFSNLGTTHLLRLTSSLTTKGASSFKITRGIEAVGGKLSVTATRENMAYTVECLRGDVDILMEFLLNVTTAPEFRRWEVADLQPQLKIDKAVAFQNPQTHVIENLHAAAYRNALANPLYCPDYRIGKVTSEELHYFVQNHFTSARMALIGLGVSHPVLKQVAEQFLNMRGGLGLSGAKANYRGGEIREQNGDSLVHAAFVAESAVAGSAEANAFSVLQHVLGAGPHVKRGSNTTSHLHQAVAKATQQPFDVSAFNASYSDSGLFGIYTISQATAAGDVIKAAYNQVKTIAQGNLSNTDVQAAKNKLKAGYLMSVESSECFLEEVGSQALVAGSYMPPSTVLQQIDSVANADIINAAKKFVSGQKSMAASGNLGHTPFVDEL [UQCRC2]	0.243	55.8	54.7	-0.00613	-1.64	-4.8
MKLSRQFTVFGSAIFCVVIFSLYLMLDRGHLDYPRNPRREGSFPQGQLSMLQEKIDHLERLLAENNEIISNIRDSVINLSESVEDGPKSSQSNFSQGAGSHLLPSQLSLSVDTADCLFASQSGSHNSDVQMLDVYSLISFDNPDGGVWKQGFDITYESNEWDTEPLQVFVVPHSHNDPGWLKTFNDYFRDKTQYIFNNMVLKLKEDSRRKFIWSEISYLSKWWDIIDIQKKDAVKSLIENGQLEIVTGGWVMPDEATPHYFALIDQLIEGHQWLENNIGVKPRSGWAIDPFGHSPTMAYLLNRAGLSHMLIQRVHYAVKKHFALHKTLEFFWRQNWDLGSVTDILCHMMPFYSYDIPHTCGPDPKICCQFDFKRLPGGRFGCPWGVPPETIHPGNVQSRARMLLDQYRKKSKLFRTKVLLAPLGDDFRYCEYTEWDLQFKNYQQLFDYMNSQSKFKVKIQFGTLSDFFDALDKADETQRDKGQSMFPVLSGDFFTYADRDDHYWSGYFTSRPFYKRMDRIMESHLRAAEILYYFALRQAHKYKINKFLSSSLYTALTEARRNLGLFQHHDAITGTAKDWVVVDYGTRLFHSLMVLEKIIGNSAFLLILKDKLTYDSYSPDTFLEMDLKQKSQDSLPQKNIIRLSAEPRYLVVYNPLEQDRISLVSVYVSSPTVQVFSASGKPVEVQVSAVWDTANTISETAYEISFRAHIPPLGLKVYKILESASSNSHLADYVLYKNKVEDSGIFTIKNMINTEEGITLENSFVLLRFDQTGLMKQMMTKEDGKHHEVNVQFSWYGTTIKRDKSGAYLFLPDGNAKPYVYTTPPFVRVTHGRIYSEVTCFFDHVTHRVRLYHIQGIEGQSVEVSNIVDIRKVYNREIAMKISSDIKSQNRFYTDLNGYQIQPRMTLSKLPLQANVYPMTTMAYIQDAKHRLTLLSAQSLGVSSLNSGQIEVIMDRRLMQDDNRGLEQGIQDNKITANLFRILLEKRSAVNTEEEKKSVSYPSLLSHITSSLMNHPVIPMANKFSSPTLELQGEFSPLQSSLPCDIHLVNLRTIQSKVGNGHSNEAALILHRKGFDCRFSSKGTGLFCSTTQGKILVQKLLNKFIVESLTPSSLSLMHSPPGTQNISEINLSPMEISTFRIQLR [MAN2A1]	-0.0419	54.8	54.8	-0.156	2.95	3.08
